Data set [1] can be described thus: Galactose-1-phosphate uridylyltransferase (GalT) activity of the enzyme liquid. Format: biochemical, E. coli. The following applies: galactose-1-phosphate uridylyltransferase activity of purified enzyme liquid, method by Takeda et al. As to the method: E. coli (JM109 strain) (from Takara Bio) was transformed with a pTrc-GalT plasmid (JP-A-2002-335988) in which a gene encoding E. coli-derived GalT has been inserted. The transformed cells were inoculated to a 2×YT medium (50 mL) containing 100 μg/mL ampicillin, followed by shake culturing at 37° C. When the number of the cells reached 1×10^8 cells/mL, IPTG was added to the culture so as to adjust the final concentration to 1 mM, and shake culture was continued for further five hours. After completion of culturing, cells were collected through centrifugation (9,000×g, 20 min) and suspended in a buffer (50 mM HEPES-NaOH (pH: 8.0), 0.1 mM zinc sulfate, 10 mM 2-mercaptoethanol, and 50 mM sodium chloride) […]). The cells were disrupted through ultrasonication, and the product was centrifuged (20,000×g, 10 min), to thereby remove cell residues.
The thus-produced fraction was employed as an enzyme liquid in the following synthesis reactions. The galactose-1-phosphate uridylyltransferase (GalT) activity of the enzyme liquid was determined (Table 1). In the present invention, GalT activity was determined through a method by Takeda et al. (JP-A-2002-335988). The thus-yielded galactose-1-phosphate uridylyltransferase is identical to hexose-1-phosphate uridylyltransferase and catalyzes the same reaction (E.C.2.7.7.12).

Data set [2] can be described thus: Galactokinase (GalK) activity of the enzyme liquid. Format: biochemical, E. coli. The following applies: galactokinase activity of purified enzyme liquid, method by Takeda et al. As for the experimental part: E. coli (JM109 strain) (from Takara Bio) was transformed with a pTrc-galK plasmid (JP-A-2002-335988) in which a gene encoding E. coli-derived GalK has been inserted. The transformed cells were inoculated to a 2×YT medium (100 mL) containing 100 μg/mL ampicillin, followed by shake culturing at 37° C. When the number of the cells reached 1×10^8 cells/mL, isopropyl-p-thiogalactoside (IPTG) was added to the culture so as to adjust the final concentration to 0.2 mM, and shake culture was continued for further eight hours. After completion of culturing, cells were collected through centrifugation (9,000×g, 20 min) and suspended in a buffer (20 mM Tris-HCl (pH 7.5) and 1 mM magnesium chloride) (10 mL). The cells were disrupted through ultrasonication, and the product was centrifuged (20,000×g, 10 min), to thereby remove cell residues.
The thus-produced fraction was employed as an enzyme liquid in the following synthesis reactions. The galactokinase (GalK) activity of the enzyme liquid was determined (Table 1). In the present invention, GalK activity was determined through a method by Takeda et al. (JP-A-2002-335988).

B1: GalT: E. coli-derived galactose-1-phosphate uridylyltransferase, purified enzyme liquid (protein, UniProt P09148 1-348, looked up)
Galactose-1-phosphate …: MTQFNPVDHPHRRYNPLTGQWILVSPHRAKRPWQGAQETPAKQVLPAHDPDCFLCAGNVRVTGDKNPDYTGTYVFTNDFAALMSDTPDAPESHDPLMRCQSARGTSRVICFSPDHSKTLPELSVAALTEIVKTWQEQTAELGKTYPWVQVFENKGAAMGCSNPHPHGQIWANSFLPNEAEREDRLQKEYFAEQKSPMLVDYVQRELADGSRTVVETEHWLAVVPYWAAWPFETLLLPKAHVLRITDLTDAQRSDLALALKKLTSRYDNLFQCSFPYSMGWHGAPFNGEENQHWQLHAHFYPPLLRSATVRKFMVGYEMLAETQRDLTAEQAAERLRAVSDIHFRESGV
In turn, B1 registered an Enzymatic activity in data set [1] of 46.7 units/mg protein.

B2: GalK: E. coli-derived galactokinase, purified enzyme liquid (protein, UniProt P0A6T3 2-382, looked up)
Galactokinase: SLKEKTQSLFANAFGYPATHTIQAPGRVNLIGEHTDYNDGFVLPCAIDYQTVISCAPRDDRKVRVMAADYENQLDEFSLDAPIVAHENYQWANYVRGVVKHLQLRNNSFGGVDMVISGNVPQGAGLSSSASLEVAVGTVLQQLYHLPLDGAQIALNGQEAENQFVGCNCGIMDQLISALGKKDHALLIDCRSLGTKAVSMPKGVAVVIINSNFKRTLVGSEYNTRREQCETGARFFQQPALRDVTIEEFNAVAHELDPIVAKRVRHILTENARTVEAASALEQGDLKRMGELMAESHASMRDDFEITVPQIDTLVEIVKAVIGDKGGVRMTGGGFGGCIVALIPEELVPAVQQAVAEQYEAKTGIKETFYVCKPSQGAGQC
In data set [2], B2 registered an Enzymatic activity of 23.1 units/mg protein.

Values taken from US8148112B2, “Sugar chain containing 4-position halogenated galactose and application thereof” (National University Corporation Hokkaido University, priority 2005, dated 2012).
